{
  "source": "patent US20140370563A1",
  "about": "“COMPOSITIONS AND METHODS FOR THE RELIEF OF INHIBITION OF ALDEHYDE DECARBONYLASE” (priority 2011, published 2014)",
  "molecules": {"B1": {"name": "catalase: catalase enzyme (Sigma C-9322) added at 4 mg/mL; converts hydrogen peroxide to water and oxygen (protein, UniProt P00432 2-527, looked up)", "Catalase": "ADNRDPASDQMKHWKEQRAAQKPDVLTTGGGNPVGDKLNSLTVGPRGPLLVQDVVFTDEMAHFDRERIPERVVHAKGAGAFGYFEVTHDITRYSKAKVFEHIGKRTPIAVRFSTVAGESGSADTVRDPRGFAVKFYTEDGNWDLVGNNTPIFFIRDALLFPSFIHSQKRNPQTHLKDPDMVWDFWSLRPESLHQVSFLFSDRGIPDGHRHMNGYGSHTFKLVNANGEAVYCKFHYKTDQGIKNLSVEDAARLAHEDPDYGLRDLFNAIATGNYPSWTLYIQVMTFSEAEIFPFNPFDLTKVWPHGDYPLIPVGKLVLNRNPVNYFAEVEQLAFDPSNMPPGIEPSPDKMLQGRLFAYPDTHRHRLGPNYLQIPVNCPYRARVANYQRDGPMCMMDNQGGAPNYYPNSFSAPEHQPSALEHRTHFSGDVQRFNSANDDNVTQVRTFYLKVLNEEQRKRLCENIAGHLKDAQLFIQKKAVKNFSDVHPEYGSRIQALLDKYNEEKPKNAVHTYVQHGSHLSAREKANL"}, "B2": {"name": "aldehyde decarbonylase (ADC) (Prochlorococcus marinus str. MIT 9313) (protein)", "chain": "MPTLEMPVAAVLDSTVGSSEALPDFTSDRYKDAYSRINAIVIEGEQEAHDNYIAIGTLLPDHVEELKRLAKMEMRHKKGFTACGKNLGVEADMDFAREFFAPLRDNFQTALGQGKTPTCLLIQALLIEAFAISAYHTYIPVSDPFARKITEGVVKDEYTHLNYGEAWLKANLESCREELLEANRENLPLIRRMLDQVAGDAAVLQMDKEDLIEDFLIAYQESLTEIGFNTREITRMAAAALVS", "notes": "… (His6 tag) (N); made in house; host or cells: E. coli BL21 (DE3) Gold"}, "B3": {"name": "ADC: Prochlorococcus marinus aldehyde decarbonylase, GenBank CAE21406.1, N-terminal His tag (protein, UniProt Q7V6D4 1-243, looked up)", "Aldehyde decarbonylase": "B2 chain", "modifications": "N-terminal His tag", "notes": "Prochlorococcus marinus aldehyde decarbonylase, GenBank CAE21406.1, N-terminal His tag"}},
  "key": {"[1]": {"molecular_target": "T1, aldehyde decarbonylase (ADC) (Prochlorococcus marinus, UniProt Q7V6D4)", "T1 construct": "made in house; host or cells: E. coli BL21 (DE3) Gold", "T1 sequence (Q7V6D4 1-243)": "B2 chain", "test": "decarbonylase assay (octadecanal to alkane, GC/MS)", "type": "biochemical", "protocol": "(§1) Typical decarbonylase assays were 0.25 mL and contained 25 mM Tris-Cl pH 7.5, 0.1% Triton X-100, 1 mM DTT, 50 μg/mL maize root ferredoxin and 1 U/mL anabaena vegetative ferredoxin reductase (Cahoon et al. 1997, PNAS 94:4872-4877.), 2 mM NADPH, 200 μM octadecanal, and between 0.2-5 μM ADC or CAT-ADC. A 20 mM octadecanal stock was freshly prepared by sonicating powder in 10% Triton X-100. Octadecanal was obtained from ISCA technologies. When indicated catalase (Sigma C-9322) was added to a final concentration of 4 mg/mL from a 20 mg/mL stock dissolved in 100 mM PIPES pH 6.0. For assays performed in 100% oxygen a reaction master mix without NADPH and a separate NADPH solution were prepared by repeated purging of the sample cell with 100% O2 and vacuum with the use of a Schlenk line. Reactions were initialed by addition of either enzyme, substrate, or NADPH and were incubated at 37° C. and stopped by the addition of an equal volume of ethyl acetate. The organic phase was separated by GC/MS on an HP-5 ms column with oven temperature increasing from 75° C. to 320° C. at 40° C./min with a flow rate of 1.3 ml/min. Substrate and product were identified by comparison to authentic standards."}, "[2]": {"substrate": "CCCCCCCC/C=C\\CCCCCCCC=O", "test": "Decarbonylase assay: kinetics of aldehyde decarbonylase activity with aldehyde substrates of different lengths (FIG. 8); recombinant ADC, GenBank CAE21406.1, with N-terminal MGSDKIHHHHHHENLYFQG tag, expressed in E. coli BL21 (DE3) Gold; no mutations stated", "type": "biochemical, Prochlorococcus marinus", "settings": "other: aldehyde as substrate, typical assay 25 mM Tris-Cl pH 7.5, 0.1% Triton X-100, ferredoxin, ferredoxin reductase, 2 mM NADPH, 37° C., GC/MS", "text": "(§2) A catalase transcriptional fusion was produced as described below. […] The Catalase used was Ec catalase (GenBank Accession No. U00092.2) though the present invention is not limited to the use of this particular catalase. The ADC used was Pm ADC (GenBank Accession No. CAE21406.1). The ADC contains a diiron site. ADCs utilizing other metals are also suitable for use. For example, ribonucleotide reductase, which is normally a diiron protein can also use Mn (manganese) (Metallomics, 2011, 3(2):110-120, ePub […] Jan. 25). The catalase and ADC sequences were connected by a 20 amino acid linker: […] [SEQ ID NO: 8]. A 6×His-tag was added to the 3′ end for simplified purification. The recombinant catalase-ADC fusion (hybrid) protein (CAT-ADC or CA) was produced using the T7 expression system in E. coli and was purified using Ni-NTA agarose resin.\n(§3) The pSpeedET T7 inducible bacterial expression plasmid containing the coding sequence for Prochlorococcus marinus aldehyde decarbonylase (ADC, GenBank: CAE21406.1 [SEQ ID NO: 1]) fused with an N-terminal MGSDKIHHHHHHENLYFQG [SEQ ID NO: 2] tag as constructed by the Joint Center for Structural Genomics, was obtained from the DNASU plasmid repository. The E. coli catalase (katE GenBank: U00096.2 [SEQ ID NO: 3]) ADC fusion protein (CAT-ADC) was constructed by overlap extension PCR. Primers for catalase were: forward—[…] [SEQ ID NO: 4] and reverse—[…] TTTGTCAATCTTAGG [SEQ ID NO: 5]. Primers for ADC were: forward—[…] TTGAGATGCCT [SEQ ID NO: 6] and reverse—[…] [SEQ ID NO: 7]. The final construct contained catalase followed by a 20 amino acid flexible linker domain ([…] [SEQ ID NO: 8]) (Martin et al 2005, Nature 473:1115-1120.) followed by ADC and finally a C-terminal hexahistidine tag and was cloned into the NdeI and XhoI sites of pET24b.\n(§4) E. coli BL21 (DE3) Gold cells containing various plasmids were grown at 37° C. to an OD600 of 0.4, were induced with 0.4 mM IPTG, and were grown for an additional 4 hours at 37° C. for ADC or 30° C. for CAT-ADC. Cell pellets were suspended in 20 mM Tris-Cl pH 7.5, 150 mM NaCl, 20 mM imidazole, 5 mM MgCl2, and 0.1 mg/mL DNase and were lysed using a French pressure cell. Cellular debris was removed by centrifugation at 40,000×g for 20 min. Recombinant proteins were purified from the soluble fraction with Ni-NTA resin (Qiagen). Wash and elution buffers were 20 mM Tris-Cl pH 7.5, 300 mM NaCl, and 25 or 250 mM imidazole, respectively. Eluted proteins were immediately exchanged into 20 mM HEPES pH 7.8, 200 mM NaCl using PD-10 desalting columns. Protein concentration was determined with Bradford Assay (Sigma).\nas §1"}, "[3]": {"substrate": "CCCCCCCC=O", "test": "Decarbonylase assay: kinetics of aldehyde decarbonylase activity with aldehyde substrates of different lengths (FIG. 8); recombinant ADC, GenBank CAE21406.1, with N-terminal MGSDKIHHHHHHENLYFQG tag, expressed in E. coli BL21 (DE3) Gold; no mutations stated", "type": "biochemical, Prochlorococcus marinus", "settings": "other: aldehyde as substrate, typical assay 25 mM Tris-Cl pH 7.5, 0.1% Triton X-100, ferredoxin, ferredoxin reductase, 2 mM NADPH, 37° C., GC/MS", "text": "as §2, §3, §4, §1"}, "[4]": {"substrate": "CCCCCCCCCC=O", "test": "Decarbonylase assay: kinetics of aldehyde decarbonylase activity with aldehyde substrates of different lengths (FIG. 8); recombinant ADC, GenBank CAE21406.1, with N-terminal MGSDKIHHHHHHENLYFQG tag, expressed in E. coli BL21 (DE3) Gold; no mutations stated", "type": "biochemical, Prochlorococcus marinus", "settings": "other: aldehyde as substrate, typical assay 25 mM Tris-Cl pH 7.5, 0.1% Triton X-100, ferredoxin, ferredoxin reductase, 2 mM NADPH, 37° C., GC/MS", "text": "as §2, §3, §4, §1"}, "[5]": {"substrate": "CCCCCCCCCCCC=O", "test": "Decarbonylase assay: kinetics of aldehyde decarbonylase activity with aldehyde substrates of different lengths (FIG. 8); recombinant ADC, GenBank CAE21406.1, with N-terminal MGSDKIHHHHHHENLYFQG tag, expressed in E. coli BL21 (DE3) Gold; no mutations stated", "type": "biochemical, Prochlorococcus marinus", "settings": "other: aldehyde as substrate, typical assay 25 mM Tris-Cl pH 7.5, 0.1% Triton X-100, ferredoxin, ferredoxin reductase, 2 mM NADPH, 37° C., GC/MS", "text": "as §2, §3, §4, §1"}, "[6]": {"substrate": "CCCCCCCCCCCCCC=O", "test": "Decarbonylase assay: kinetics of aldehyde decarbonylase activity with aldehyde substrates of different lengths (FIG. 8); recombinant ADC, GenBank CAE21406.1, with N-terminal MGSDKIHHHHHHENLYFQG tag, expressed in E. coli BL21 (DE3) Gold; no mutations stated", "type": "biochemical, Prochlorococcus marinus", "settings": "other: aldehyde as substrate, typical assay 25 mM Tris-Cl pH 7.5, 0.1% Triton X-100, ferredoxin, ferredoxin reductase, 2 mM NADPH, 37° C., GC/MS", "text": "as §2, §3, §4, §1"}, "[7]": {"substrate": "CCCCCCCCCCCCCCCC=O", "test": "Decarbonylase assay: kinetics of aldehyde decarbonylase activity with aldehyde substrates of different lengths (FIG. 8); recombinant ADC, GenBank CAE21406.1, with N-terminal MGSDKIHHHHHHENLYFQG tag, expressed in E. coli BL21 (DE3) Gold; no mutations stated", "type": "biochemical, Prochlorococcus marinus", "settings": "other: aldehyde as substrate, typical assay 25 mM Tris-Cl pH 7.5, 0.1% Triton X-100, ferredoxin, ferredoxin reductase, 2 mM NADPH, 37° C., GC/MS", "text": "as §2, §3, §4, §1"}, "[8]": {"substrate": "CCCCCCCCCCCCCCCCCC=O", "test": "Decarbonylase assay: kinetics of aldehyde decarbonylase activity with aldehyde substrates of different lengths (FIG. 8); recombinant ADC, GenBank CAE21406.1, with N-terminal MGSDKIHHHHHHENLYFQG tag, expressed in E. coli BL21 (DE3) Gold; no mutations stated", "type": "biochemical, Prochlorococcus marinus", "settings": "other: aldehyde as substrate, typical assay 25 mM Tris-Cl pH 7.5, 0.1% Triton X-100, ferredoxin, ferredoxin reductase, 2 mM NADPH, 37° C., GC/MS", "text": "as §2, §3, §4, §1"}, "[9]": {"molecular_target": "T1, aldehyde decarbonylase (ADC)", "settings": "in the absence of catalase; Warui et al. 2011; cited from earlier work"}},
  "note": "“Also recorded” adds a separate entry of the source.",
  "data": [
    {"molecule": "OO", "note": "[H2O2, hydrogen peroxide, reference compound]", "values": [
      {"measurement": "inhibition of ADC by H2O2 in low oxygen atmosphere", "setting": "[1]; 4% (50 μM) atmosphere", "value": "enhanced"},
      {"measurement": "inhibition of ADC by H2O2 in oxygen atmosphere", "setting": "[1]; 100% O2 (1250 μM) atmosphere, FIG. 2", "value": "lessened"},
      {"measurement": "inhibition of ADC activity by H2O2", "setting": "[1]; H2O2 added to decarbonylase assays, FIG. 1A / FIG. 2", "value": "selectively inhibited; also recorded: increasing inhibition"}
    ]},
    {"molecule": "B1", "values": [
      {"measurement": "relief of inhibition by catalase in all electron transport systems studied", "setting": "[1]; Maize FNR/anabaena Fd, Spinach FNR/ferredoxin, PMS/NADH, FIG. 10", "value": "relieves the inhibition"},
      {"measurement": "relief of H2O2 inhibition of ADC by added catalase", "setting": "[1]; catalase added, 0, 1 or 10 mM H2O2 (FIG. 3), FIG. 1B", "value": "restoration of ADC activity; also recorded: effective in overcoming the H2O2 induced inhibition of ADC"},
      {"measurement": "turnovers of the ADC reaction in the presence of catalase", "setting": "[1]; excess aldehyde substrate, NADPH, ferredoxin NADPH reductase and ferredoxin, 16 hrs (FIG. 9)", "value": "greater than 150 turnovers"}
    ]},
    {"molecule": "B2", "values": [
      {"measurement": "Km", "setting": "[2]", "value": "44.4 ± 7.2", "unit": "µM"},
      {"measurement": "Km", "setting": "[3]", "value": "27.7 ± 9.9", "unit": "µM"},
      {"measurement": "Km", "setting": "[4]", "value": "29.5 ± 6.2", "unit": "µM"},
      {"measurement": "Km", "setting": "[5]", "value": "45.3 ± 18.5", "unit": "µM"},
      {"measurement": "Km", "setting": "[6]", "value": "18.9 ± 1.7", "unit": "µM"},
      {"measurement": "Km", "setting": "[7]", "value": "30.1 ± 4.2", "unit": "µM"},
      {"measurement": "Km", "setting": "[8]", "value": "41.3 ± 4.8", "unit": "µM"}
    ]},
    {"molecule": "B3", "values": [
      {"measurement": "sensitivity of decarbonylase activity to H2O2 inhibition", "setting": "[1]; 200 μM substrate, 1 mM H2O2 added, FIG. 6A", "value": "inhibited by H2O2"},
      {"measurement": "decarbonylase activity with or without added catalase", "setting": "[1]; 200 μM substrate, excess NADPH, ferredoxin, FNR, FIG. 6A", "value": "highest activity only when catalase was added"},
      {"measurement": "time after which ADC activity was inhibited", "setting": "[1]; without catalase, FIG. 1B", "value": "about 15 min"},
      {"measurement": "turnovers until ADC activity was inhibited", "setting": "[1]; without catalase, FIG. 1B", "value": "about 3 turnovers"},
      {"measurement": "turnovers of ADC before it becomes inactive", "setting": "[9]", "value": "approximately three"}
    ]}
  ]
}
